From the RNAGym collection of RNA variant scans (doi:10.1073/pnas.2313332121)

B1: TPR t1 (parent)
chain: GACCAAUCUGCCCUCAGAGCUCGAGAACAUCUUCGGAUGCAGAGGAGGCAGGCUUCGGUGGCGCGAUAGCGCCAACGUCCUCAACCUCCAAUGCAUCCCACCACAUGAUGAUGCCUGAAGAGCCUUGGUUUUUUG

Variants of: B1
Test: polymerase ribozyme fitness, log enrichment relative to wild type (log ratio); higher = more active; in vitro selection for triplet polymerase activity
Method in brief: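 Both subunits of a heterodimeric triplet polymerase ribozyme were given their own mutant library, built by PCR and transcribed. Each library was annealed with a biotinylated primer, the partner subunit and triplets, incubated frozen at −7 °C, and its extended constructs gel-excised, captured on streptavidin beads and amplified by RT-PCR, all in one round done in triplicate. Fitness is the logarithm of genotype enrichment relative to wild-type enrichment, with replicates averaged by inverse-variance weighting. That logarithm is base 2, and Illumina-sequenced genotypes needed ≥10 input reads and ≥1 read per output.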

Variant | polymerase ribozyme fitness (log ratio)
C12G A103U | -4.83
U55A G63C C72U G77C C104A | -5.29
C22U C70U | -4.14
C34A U54G C94U | -2.75
C13U G71A | -0.0397
C13G A43U C76U C123G | -0.345
G19C C72A C124A U129G | -0.719
U7A A16U C49U C124U | 1.1
C53U G71U G127A | -1.14
G51C U87A G120A | -3.27
C8A A46U | -1.5
A27U A68U A90C G93A C101G G110U | -7.92
U14G A95G | -2.23
A43G A50U C62A A90G U131A | -5.99
U112G G128C | -2.91
A6U U7G C8G C56A G63A | -2.06
C70U C72A C85A | -2.03
A2C U7G G57U G60U | -0.82
G52C G113A C124U | -1.69
U78A C115U | -1.41
A5G G47U | -1.19
G44A G71A | -2.54
U55C C70U C88G | -0.976
C85U A118G | -0.773

Variant | polymerase ribozyme fitness (log ratio)
C11G C56G U106G | -0.581
C11A G48A A50U C70U C97G G122A | -5.3
U14G G36U G42C G61A G113A U132A | -5.95
C56G A68G C73U A95G | -3.3
G47A U59G A91U G113A | -2.02
G58U C98U U125A | -1.35
G42C G69U C70G | -1.55
C89A G128C | -4.25
C12G C73G C88G | -1.78
C3A U78A | -1.96
A2U C99U | -5.84
A2G C20G G113A | -1.61
A43U A46U A105U C124G | -4.04
G71U A84G U126C U133A | -2.74
C31G C34U G69U U78C C86U C101A G113U | -7.18
C20G C76U | -3.75
G19U A74U G113A | -2.19
C70U U81G A84C G122A | -5.65
C80G C104U | -5.71
A26U G48A C72U | -3.67
C11G C12U G42C G69C | -5.66
C28U G44U C49U G63C G110A | -2.74
C11U A26U G52C | -3.53
U9A A16G G93A G117A | -0.214

Variant | polymerase ribozyme fitness (log ratio)
C70A G113A | -2.41
C8G A18U C98U | -2.18
C56G G71C | -3.19
C12G A46C C101U U132C | -1.45
C31U C85G | -5.19
U59A C72A U109A | -7.12
G69U C104U | 0.349
C15A C56U U59C C64U A84U C98G G110A | -7.69
G51U C88U G113C | -5.71
C40G C79U C101U G113U | -4.09
C86U G93A C101G G122A | -3.73
C62G | -1.53
C13G G39U C115U | -2.63
U92G G93C | -3.76
C56G A66C | -1.08
G45A A108G | -2.36
C8U G113A A121G | -0.604
C56A A83U C85U C99U | -3.58
C64G U112A | -4.73
G120U G128C | -1.03
C11U U30A G61U | -4.45
A2C C4A G120A | 0.58
C64U C73A U131A | -0.288
C3A G39C C72U U92A A111G | -5.51

Variant | polymerase ribozyme fitness (log ratio)
U55G C62G C123U | -0.0735
A103U G113A | -3.81
C40G U67C C70U U116C U133C | -5.53
C8G C34U C70A G117A U126A | -6.92
G69C U92A U109G | -6.72
A43U C49A C89U A90C U133G | -1.26
C11U C62G C89U A121C C124G U125A | -0.483
C62U C89G G93A C101U G113C C114U G127C | -4.42
C64G C98U | -6.14
G61A U112G | 0.603
C40G C53U | -0.175
C11A G45A G60A G113C | -4.47
G63C C70U A90G | 0.0962
A43U U96A A121U | 0.867
G48U G69A | -3.02
A108U G120U | -5.29
C40G G58C G60U C101U U126C | -2.69
C49U C97U | -1.01
U14A U54G A84U C98A A103U G117A C123G G128A | -6.1
C22G G71U | -3.63
C124U U126A | 1.37
C3A C8A C70G | -3.71
A6C C114U | -2.3
A6U C20U U21G G69C A121U | -0.95

Variant | polymerase ribozyme fitness (log ratio)
U54A C115U U131C G135C | -1.35
C76U C88A | -1.29
C13U C72U | -0.334
U9A U14G A41C G42U G60U | -0.928
A18U G39U G61U C97U U130A | -4.49
C28A G61A G93A C123A | -3.78
A27C C56G | -3.34
A43U U87G A91C A95G A118G | -1.27
C13U U59A G60A C80U A95C G120U | -1.94
A2C U106A | -1.44
A24U C124G | -5.19
A27U A29G A83C | -2.59
U96G C102A G127C | -3.73
A111U U125A | -3.84
U21C C22A C101G G110A | -6.05
U7A C11A U81A | -1.32
A2C C89G | -3.68
C3A C11U C49G C53A G60A C101A | -3.22
U9G G42C G45A C85G | -4.6
U21A G45A U59G G71A | -4.25
G19C G71U G120U G122A C123U | -3.78
A50U C79G G110A G122C | -6.04
A18G C28A U112A | -4.92
C56U C79A C101U | -1.23

Variant | polymerase ribozyme fitness (log ratio)
G52C G61A C62U C85U U96G G117A | -4.79
A83U G127U | -1.08
G10U C40U A41G A46C C64U | -5.98
A29G G58U U59A | -1.29
C73A U81A A90G | -0.106
C34A C104U | -2.35
A16G G77A C85G | -3.69
A6C C53U A74G C80U A118G | -1.6
C3U C11U C13G G63C U116C | -4.43
C12G G36U U132A | -1.56
C49U G51U C62U C80A G113A C124A | -3.94
G51U G71A A90G C98G C114A C123U | -6.6
C49U A66G C73A C101A G128A | -4.92
C3A A18C U112C U130C | -0.927
G10U G110A | -1.35
C8A C11G C13U C20A C49G | -3.3
C53G C56A G60A A111G | -0.505
U7C A74C | 0.236
C49G C79U U96G | -0.996
C13A C97A | -5.11
C12U C22A | -4.93
G51A C73G C124U | -1.14
G10U C13U G61U | -0.215
C8U G44A C104U | 0.0147

Variant | polymerase ribozyme fitness (log ratio)
G36U U106A G127C | -1.83
G25A C40U G63A G113C U129A | -6.66
A43C G48U U54A G77U G120A G135A | -2.07
C8G C20U C89A A100U C102A | -5.22
C15G G47U U55C U78C C82U C86A G120U | -2.18
C72A U81C C82A | -1.12
C3U C12U A46G A50G C101A C104U | -0.987
G42A G71A | -3.35
G51U C73A G117A | -4.4
A6U A27U A46C G48A C53G C79G C82G G110C | -6.9
A43U C104U | -0.812
A16C C82U G110A C123G U132A | -4.33
U9C G44A C79U C86U G120A | 0.952
G36A G48U A84G | -2.02
G10C C98U | -1.81
C94A C101G | -2.45
C11U C20U G63A U87C | -1.21
A37U A50C G63U C79A C80G G107U G117C | -6.62
C13G A83U | -2.24
C13U C86U | -0.506
A66U U125A | -2.11
C4U G48C G61U C98U U112C | -0.785
G61U A83U A90G | 0.371
